Reference: the nanobody polyreactivity screen of Harvey et al. (2022)

Experiment: yeast display, Sf9 membrane polyspecificity reagent, FACS + sequencing; frameworks hold sequencing errors
In short: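 Using colony PCR, genes from sorted yeast display clones were amplified, then sequenced on MiSeq at 2 × 250 and filtered by CDR length. The clones had been stained with 10% biotinylated, detergent-solubilized Sf9 membrane reagent for 1 hour at 4 °C and sorted by FACS into low and high (top ~1%) gates on anti-HA and streptavidin fluorescence. Polyreactivity labels come from the gate of origin.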

Sequence | polyreactivity (PSR sort gate)
QVQLVESGGGLVQAGGSLRLSCAASGFIFVNYMGWYRQAPGKERELVAAISRGGSTNYADSVKGRFTISRDTAKNTVYLQMNSLKPEDTAVYYCAAETWYSGYTYDSCGQGTQVTVSS | low polyreactivity
QVQLVESGGGLVQAGGSLRLSCAASVSTFISYAMGWYRQAPGKERELVAAISSSTGRTYYADSVKGRFTISRDNAKNTVYLQLNSLKPEDTAVFYCNAVHRYERDYWGQGTQVTVSS | high polyreactivity
QVQLVESGGGLVQAGGSLRLSCAASGNIFSFNDVGGSRQAPGNEREWVAAITSSDSTNYADSVKGRFTISRDNAKNTVYLQMNSLKPEDTAVYYCATEILTAARDTVVYQFYLGYYYWGQGTQVTVSS | low polyreactivity
QVQLVDSGGGLVQAGGSLRLSCAASGSIFKYYAMGWSRQAPGKERELVAAISWSGDSTYYADSVKGRFTISRDNAKNTVYLQMNSLKPEDTAVYYCAAVYPYQVPDYDYWGQGSQVTVSS | low polyreactivity
QVQLVESGGGLVQAGGSLRLSCAASGSIIWRNAMGWYIQAPGKERELVAAISYSGGSTYYADSVKGRFTISRDNAKNTVYLQMNSLKPEDTAVYYCAARTSYYVYRHPSGRYDYWGQGSQVTVSS | low polyreactivity
QVQLVESGGGLVQAGGSLRLICAASGRIFFVNAMGWYRQAPGKERELVAAISRSAGRTYYADSVKGRFTISRDNAKNTVYLQMNSLKPEDTAVYYCATEGRTDYNREMEYWGQGTQVTVSS | low polyreactivity
QVQLVESGGGLVQAGGSLRLSCAASAGTFNHYAMGWSRQEPGKERELVASITNGASTYYADSVKGRFTISRDNAKNTVYLQMNILKPEDTAVYYCAKRGRVGKYRYEYWGQGTLVTVSS | low polyreactivity
QVQLVESGGGLVQAGGSLRLICAASGSIFDSYTMGWYRQAPGKERELVAAISKNGGSTYYADSVKGRFTISRDNAKNTVYFQMNSLKPEDTAFYYCARSRSGYRYDYWGQGTQVTVSS | high polyreactivity
QVQLVESGGGLVQAGGSLRLSCAASGRIFSYYAMGWYRKAPGKERELVAAITSAGGTNYAVSVKGRFTISRDNAKITVYLQMNSLKPEDTAVYYCAADSSVLQNYYRYRYPYVTYNYWGQGTQVTVSS | low polyreactivity
QVQLVESGGGLVQAGGSLRLRCAASGSIFKYYAMGWYRQAPGTERELVAAITWSGTRTYYADSVKGRFTISRDNAKNTVYVQMNSLKPEDTAVYYCNAPRYLYSAGRFNYWGQGTQVTVSS | high polyreactivity
QVQLVESGGGLVQAGGSLRLSCAASGSTFAYYAMGWYRQAPGKEREFVAAISSRKDSTYADSVKGRFTLSRDNAKNTVYLQMNSLKPEDTAVYYCAKGPYYWSSSRVRYDYWGQGTQVTVSS | high polyreactivity
QVQLVESGGGLVQAGGSLRLSCAASGFTFFSYTMGWYRQAPGKERELVAAISKRGSRTYYADSVKGRFTISRDNAKNTVYLQRNSLKPEDTAVYYCAADCGREVVLRREDYWGQGTQVTVSS | high polyreactivity
QVQLVESGGGLVQAVGSLRLSCADSGRIFYGYDMGWYRQAPGKERELVAAITWRGGTFYADSVKGRFTISRDNEKKTVYLQMNSLKPEDTAVYYCSARVSSYGRYDYWGQGTQVTVSS | high polyreactivity
QVQLVESGGGLVQAGGSLRLSCAASGFTFRHNVMGWYRQAPGKERELVATITWSGGRTSYADSVKGRFTISRDNAKNTVYLQMKSLKPEDTAVYYCAARFFSYSQYAYNYWGQGTQVTVSS | high polyreactivity
HVQLVESGGGLVQAGGILRLSFAASGFIFCYYTMGWYRQATGKERELVAAINSGGSTNYADSVKGRFTISRDNAKNTVYLQMNSLKPEDTAVYYCAALVWYSGELFYYWGQGTQVTVSS | low polyreactivity
QVQLVESGGGLVQAGGSLRLSCPASGSIFDFYAMGWYRQAPGKERELVAAIDDIDDSTYYADSVKGRFTISRDNAKNTVYLQMNSLKPEDTAVYDCAAELRPGYRSSYGLIYDYWGQGTQVTVSS | low polyreactivity
QVQLVESGGGLVQAGGSLRLSCAASGRTLDVYAMGWYRQAPGKERELVADINWSGGRTYYADSVKGRFTISRDNAKNTVYLQMNSLIPEDTAVFYCAADLSWRQYYREYDYWGQGTQVTVSS | high polyreactivity
QVQLVESGGGLVQAGGSLRLSCAASGITFAQYAMGWYRQAPGKEREVVAGITRSGGSTHYADSVKGRFTISRDNAKNTVYLQMNSLKPEDTAVYYCNARYPYRGKRKPSDYWGQGTQVTVSS | high polyreactivity
QVQLVESGGGLVQAGGSLRLSFAASGSTFTPNVMGWYRQAPGKERELVAAINSSGGSTFYADSVKGRFTISRDNANNTVYLQMNSLKPEDTAVYYCAASWHTPTVYDEYYYWGQGTQVNVSS | low polyreactivity
QVQLQESGGGLVQAGGSLRRSCAASGSIFSHWAMGWYRQTPGKERELVASITAGGNTNYADSVKGRFTISRDNAKNTVYLPMDSLKPEDTAVYYCAADGYYGAWDLEYYYWGQGTQVTVSS | low polyreactivity
QVQLVESGGGLVQAGGSLRLSCAASGSIFAKNAMGWYRQAPGKERELVAAITFIGGDTYYADSVKGRFTISRDNAKNTVYLQMNSLKPEDTAVFYCNRALLVTSIYPYLFGSGWYDYWGQGTQVTVSS | low polyreactivity
QVQLVESCGGLVQAGGSLRLSCAASGSTFVYNSMGWYRQAPGKEREMVDAITWRGSTYYADSVKGRFTISRDNAKNTVYLQMNSLKPEDTAVYYCAARFSNLPEGVTYYYWGQGTQVTVSS | high polyreactivity

Sequence | polyreactivity (PSR sort gate)
QVQLVESGGGLVQAGGSLRLSCAASGSIFGANGMGWYRQAPGKESELVAASTSGGSTTYADYVKGRFTISRDNAKNTVYLQINSLKPEDTAVYYCAADECTPYWPVDNFDYWGQGTQVTVSS | low polyreactivity
QVQLVESGGGLVQAGGSLRLTCAASGRIFYGNALGWYRQAPGKERELVAAISSGGGSTYYADSVKGRFTISRDNAKNTVYLQLNSLKPEDTAVYYCAADPVHRFPGTGGFWGKGTQVTVSS | low polyreactivity
QVQLVESGGGLVQAGGSVRLSCAASGRTSAWYAMGWYRQAPVKERELVADISGSADSTYYADSVKGRFTISRDNAKYTVYVQMHSLKPEDTAVYYRATSISTPTGDPFDYWGQRTQVTVSS | low polyreactivity
QVQLVESGGGLVQAGGSLRIISAASGSTFRWYDMGWYRQAPGKEMELVAAITGSGGATYYADSVKGRFTIARDYAKNTVYLQKNRLKPEDTAVYYCAAVWWVPLAYDDYDYWGQGTQVTVSS | high polyreactivity
QVQLVESGGGLVQAGGSLRLSCAASRSIFRYYTMGWYRQAPGKETELVASISRGGSTNYADSVKGRFTISRDNAKNTVYLQMNSLKPEDTAVYDCAAGWTTRYFGGVDYWGQGTQVTVSS | high polyreactivity
QVQLVESGGGLVQAGGSLRLSCAASGFTFRYNAMGWYRQAPGKERELVAAITSDVSTNYADSVKGRFTISRDNAKNTVYLEMNSLKAEDTAVYYCAKGTAKRIVGRSPGNTYEDHYWGQGTEVTVSS | low polyreactivity
QVQHVESGGGLVQAGGSLRLSCAASGFTFFGDYAMGWYRQAPGKERELVAGISVSGGSTYYADSVKGRFTISRDNAKNSVYLQMNSLKPEDTGVYYCAARYSLKGGRYVYWGQGTQVTVSS | high polyreactivity
QVQLLESGGGLVQAGGSLRLSCAASGSIFGLYAMGWYRQAPGKERELVAAISPRGGSTYYADSVKGRFTISRDNAKNTVYLQMNSLKPEDTAVYYCNRDYIRYALGHDYWGQGTQVTVSS | high polyreactivity
QVQLVESGGGLVQAGGILRLSCAASGSTFTDSDMGWYRQAPGKERELVAAITSGGSTNYADSVKGRFTISLDNAKYTVYLPMNSLKPEDSAVYYCAAADADRKYDYWGQGTQVTVSS | low polyreactivity
KVQLVQSGGGLVQAGGILRLSCAASGRIFSSYAMGWYSQAPGKERELVAVISQRGGSTSYADSVKGRFTISRDNAKNTVYLQMNSLKPEDTAVYYCARRPGKGNNYWGQGTQVTVSS | high polyreactivity
QVQLVESGGGLVQAGGSLRLSCAASGRTFYDNAMGWDRQAPGKARELVAAITQSGGRTYYADSVKGRFTISRDNAKNTGYLQMNSLKPADTAVYYCAASWPNYLYEYWGQGTQVTVSS | high polyreactivity
QVQLVESGGGLFQAGGSLRLSCAASGRTFWAYAMGWYRQAPGKERELVAAITTSRGSTNYADSVKGRFTISRDNAKNTVYLQMNSLKPEDTAVYDCNADPTYHVVIGVGYWGQGTQVTVCS | low polyreactivity
QVQLVESGGGLVQAGGSLRLSCAASGYTFEDNAMGWYRQAPGKERELVAAIDWSGDSTYYADSVKGRFTISRDNAKNTVYLQMNSLKPEDTAVYYCSADYTTWTDMDYWGQGTQVTVSS | low polyreactivity
QVQLVESCGGLVQAGGSLRLSCAASGRIIRKYDMGWYRQAPGKERELVAAISGTGITYYADSVKGRFTISRDNAKNTVYLQMNSLKPEDTAVYYCARGSKPRAWSWAYPSATSIYDYLGQGTQVTVSS | low polyreactivity
QVQLVESGGGLVQAGGRLRLSCAASGYIFDDKAMGWYRQAPGKERELVATNYADSVKGRFTISRDNAKNTVYLQMNSLKPEATAVYYCAAEAFYPWTSSRYIAYYYWGQGTQVTVSS | low polyreactivity
QVQLVESGGGLVQAGGSLRLSCAASGSIFGWYAMGWYRQAPGKERELVADISYIGVSTYYADSVKGRFTISRDNAKNTVYLQMNTLKPEDTAVYYCATYYLLYPIPYGYPRSPEYEYWGQGTQVTVSS | low polyreactivity
QVQLVESGGGLVQAGGSLRLSCAASGSTFYSYAMGWYRQAPGKERELVAAITRGGSTYYADSVKGRFTISRDNAKNTVYLQMNSLKPEDTAVYYCAARPWTSASYDYWGQGTQVTVSS | low polyreactivity
QVQLVESGGGLVQAGGSLRLSCAASGSTFVWYAMGWYRQAPGKERELVASITSGGNTNYADSVKGRFTISRDNAKNTVYLQMNSLKPEDSAVYYCNAVRSQRSLSSRYYYWGQGTQVTVSS | low polyreactivity
QVQLVESGGGLVQAGGSLRLSCAASGFILYVNAMGWYRQAPGKERELVAGITSSGTSTYADSVKGRFTISRDNAKNTVYLQMNSLKPEDTAVYYCAALRRPYGARDYDYWGQGTQVTVSS | low polyreactivity
QVQLVESGGGLVQAGGSLRLSCAASGRSYRRNTMGWYRQAPGKERELVAAISNRGTSTYYADSVKGRFTISRDNEKNTVYLLMNSLKPEDTAVYYCAARGVRSYFFPYNYWGQGTQVTVSS | high polyreactivity
QVHLVESGGGLVQAGGSLRLSCAASGITFRRYGMGWYRQAPGKERELVATITSSVGSRTYYADSVKGRFTISRDNAKNTVYLQMNSLKPEDTAVYYCAADHRVYDYEYWGQGTQVTVSS | low polyreactivity
